The values that follow come from patent publication US20260274985A1 (MYTHIC THERAPEUTICS, published 2026).

Changes are numbered by the printed parent chain.

The target of assay [1] is T1, Human TROP2 Protein, His Tag (Acro Biosystems) (human, UniProt P09758 27-274).
T1 construct: not shown: His tag
T1 sequence (looked up): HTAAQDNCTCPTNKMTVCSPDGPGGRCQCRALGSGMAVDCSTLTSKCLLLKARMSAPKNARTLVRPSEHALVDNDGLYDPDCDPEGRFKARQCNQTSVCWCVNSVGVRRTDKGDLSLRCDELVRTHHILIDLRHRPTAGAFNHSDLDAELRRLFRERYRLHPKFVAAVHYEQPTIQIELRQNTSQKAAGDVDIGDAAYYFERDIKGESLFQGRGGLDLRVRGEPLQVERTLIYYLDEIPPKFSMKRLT
The assay can be described thus: Octet BLI, IgG on anti-human Fc sensor; 3 = No binding. In general terms: In BLI a coated tip is dipped into the sample, and binding shifts an interference pattern.

Assay [2] has as its target T2, Human TROP2 Protein, His Tag (Acro Biosystems) (human, UniProt P09758 27-274).
T2 construct: also called TACSTD2; not shown: His tag
T2 sequence (looked up): T1 sequence (looked up)
The assay can be described thus: BLI (Octet), IgG on anti-human Fc sensor, 50 nM TROP2-His; 1 = pH dependent. How it is done:
After allowing for four days of protein expression, cell culture supernatants were collected, quantified by SDS-PAGE analysis (DNS), and the pH dependence of the variant was evaluated using biolayer interferometry (BLI) on an Octet RED 96e instrument. Briefly, cell culture supernatants were diluted based on qualitative expression level of the variant determined by visual examination of SDS-PAGE gels, 5 μL of cell culture supernatant was diluted into 195 μL of 1×PBST, pH 7.4 for high expressors, 25 μL of cell culture supernatant was diluted into 175 μL of 1×PBST, pH 7.4 for medium expressors and 100 μL of cell culture supernatant was diluted into 100 μL of 1×PBST, pH 7.4 for low expressors for loading onto the sensor tips. The resulting diluted supernatants were then captured on an anti-human Fc sensor (Forte Bio). A baseline was established using 1×PBST (50 mM Potassium Phosphate Buffer+150 mM NaCl+0.05% Tween 20) pH 7.4, and the sensor was associated with 50 nM of TROP2 (Human TROP2 Protein, His Tag, Acro Biosystems) in 1×PBST pH 7.4 for 120 sec to generate an association curve. In the dissociation phase, the antibody-antigen complex on the sensor was exposed to 1×PBST pH 7.4 or pH 5.4, for 300 sec. […]

For assay [3], the target named is T3, Human TROP2 Protein, His Tag (Acro Biosystems) (human, UniProt P09758 27-274).
T3 construct: Bought antigen used at 50 nM in the Octet screen; also called TACSTD2; not shown: His tag
T3 sequence (looked up): T1 sequence (looked up)
The assay can be described thus: Octet BLI, IgG on anti-human Fc sensor; 3 = No binding.

B1: MYT12395 (antibody, V domains shown)
VH: QVQLVQSGAEVKKPGASVKVSCKASGYTFTTAGMQWVRQAPGQGLEWMGWINTHSGVPKYAEDFKGRVTISADTSTSTAYLQLSSLKSEDTAVYYCARSGFGSSYWYFDVWGQGTLVTVSS
VL: DIQMTQSPSSLSASVGDRVTITCKASQDVSTAVAWYQQKPGKAPKLLIYSAHYRYTGVPSRFSGSGSGTDFTLTISSLQPEDFAVYYCHQHYITPLTFGQGTKLEIK
notes: datopotamab VL 52, 89 substituted
With B1, the binding result in assay [1] is recorded as “no binding (tested: 50 nM TROP2)”.

B2: MYT13385 (antibody, V domains shown)
VH: QVQLQQSGSELKKPGASVKVSCKASGYTFTNYGMNWVKQAPGQGLKWMGWINTYTGEPTYTHDFKGRFAFSLDTSVSTAYLQISSLKADDTAVYFCARGGFGSSYWYFDVWGQGSLVTVSS
VL: B1 VL with M4L, T20S, S30H, T31I, S60D, H89Q, Q100A, L104V
notes: Sacituzumab HC-LC pairing variant
With B2, the binding result in assay [2] is “binds”.

B3: MYT11717 (antibody, V domains shown)
VH: QVQLQESGPGLVKPSETLSLTCTVSGGSISSYGVHWIRQPPGKGLEWIGVIHTSGVTDYNSALMGRVTISVDTSKNQFSLKLSSVTAADTAVYYCARDGDYDRYTMDYWGQGTLVTVSS
VL: DIVMTQSPDSLAVSLGERATINCRASKSVSTSGYSYMHWYQQKPGQPPKLLIYLASNLESGVPDRFSGSGSGTDFTLTISSLQAEDVAVYYCQHSRELPYTFGQGTKLEIK
notes: hu7E6SVG variant, His at HCV position 52 (H2 03); screened as IgG in Expi293 supernatant
Regarding B3, in assay [3], the binding result is given as “no binding (tested: 50 nM)”.
